Measured values as given in PMC5755487, “Combining Chemical Cross-linking and Mass Spectrometry of Intact Protein Complexes to Study the Architecture of Multi-subunit Protein Assemblies” (Journal of Visualized Experiments : JoVE, 2017).
Several values for one entry are separate records, joined by “and”; a condition that tells them apart may be missing. Equal entries are not always repeated.

B1: large subunit of carbamoyl phosphate synthase (CPS) from Escherichia coli (enzyme)
chain: MPKRTDIKSILILGAGPIVIGQACEFDYSGAQACKALREEGYRVILVNSNPATIMTDPEMADATYIEPIHWEVVRKIIEKERPDAVLPTMGGQTALNCALELERQGVLEEFGVTMIGATADAIDKAEDRRRFDVAMKKIGLETARSGIAHTMEEALAVAADVGFPCIIRPSFTMGGSGGGIAYNREEFEEICARGLDLSPTKELLIDESLIGWKEYEMEVVRDKNDNCIIVCSIENFDAMGIHTGDSITVAPAQTLTDKEYQIMRNASMAVLREIGVETGGSNVQFAVNPKNGRLIVIEMNPRVSRSSALASKATGFPIAKVAAKLAVGYTLDELMNDITGGRTPASFEPSIDYVVTKIPRFNFEKFAGANDRLTTQMKSVGEVMAIGRTQQESLQKALRGLEVGATGFDPKVSLDDPEALTKIRRELKDAGADRIWYIADAFRAGLSVDGVFNLTNIDRWFLVQIEELVRLEEKVAEVGITGLNADFLRQLKRKGFADARLAKLAGVREAEIRKLRDQYDLHPVYKRVDTCAAEFATDTAYMYSTYEEECEANPSTDREKIMVLGGGPNRIGQGIEFDYCCVHASLALREDGYETIMVNCNPETVSTDYDTSDRLYFEPVTLEDVLEIVRIEKPKGVIVQYGGQTPLKLARALEAAGVPVIGTSPDAIDRAEDRERFQHAVERLKLKQPANATVTAIEMAVEKAKEIGYPLVVRPSYVLGGRAMEIVYDEADLRRYFQTAVSVSNDAPVLLDHFLDDAVEVDVDAICDGEMVLIGGIMEHIEQAGVHSGDSACSLPAYTLSQEIQDVMRQQVQKLAFELQVRGLMNVQFAVKNNEVYLIEVNPRAARTVPFVSKATGVPLAKVAARVMAGKSLAEQGVTKEVIPPYYSVKEVVLPFNKFPGVDPLLGPEMRSTGEVMGVGRTFAEAFAKAQLGSNSTMKKHGRALLSVREGDKERVVDLAAKLLKQGFELDATHGTAIVLGEAGINPRLVNKVHEGRPHIQDRIKNGEYTYIINTTSGRRAIEDSRVIRRSALQYKVHYDTTLNGGFATAMALNADATEKVISVQEMHAQIK
notes: carbamoyl phosphate synthase large subunit, Escherichia coli; also called large CPS subunit
B2: small subunit of carbamoyl phosphate synthase (CPS) from Escherichia coli (enzyme)
chain: MIKSALLVLEDGTQFHGRAIGATGSAVGEVVFNTSMTGYQEILTDPSYSRQIVTLTYPHIGNVGTNDADEESSQVHAQGLVIRDLPLIASNFRNTEDLSSYLKRHNIVAIADIDTRKLTRLLREKGAQNGCIIAGDNPDAALALEKARAFPGLNGMDLAKEVTTAEAYSWTQGSWTLTGGLPEAKKEDELPFHVVAYDFGAKRNILRMLVDRGCRLTIVPAQTSAEDVLKMNPDGIFLSNGPGDPAPCDYAITAIQKFLETDIPVFGICLGHQLLALASGAKTVKMKFGHHGGNHPVKDVEKNVVMITAQNHGFAVDEATLPANLRVTHKSLFDGTLQGIHRTDKPAFSFQGHPEASPGPHDAAPLFDHFIELIEQYRKTAK
notes: carbamoyl phosphate synthase small subunit, Escherichia coli; also called small CPS subunit

What was measured:
[1] = biological target: RvB2 subunit of the RvB1/B2 complex from Chaetomium thermophilum (Chaetomium thermophilum); test: native MS; purified complex exchanged into 200 mM ammonium acetate, nano-electrospray, Q-ToF instrument; intact complexes and sub-complexes
[2] = biological target: the molecule itself; test: cross-linking; purified complex with BS3 (0.5-5 mM titrated), 25 °C, 1 h; SDS-PAGE, in-gel trypsin digestion, LC-MS/MS, pLink search
[3] = biological target: B1; test: native MS; purified complex exchanged into 200 mM ammonium acetate, nano-electrospray, Q-ToF instrument; intact complexes and sub-complexes; details: both partners purified

Work on “RvB1 subunit of the RvB1/B2 complex from Chaetomium thermophilum (natural protein)” yielded a stoichiometry N (RvB1 per RvB2 (3:3)) [1] of 1 and a stoichiometry N (RvB1 per RvB2 (6:6)) [1] of 1.

B1: binds [2].

For B2, the “stoichiometry N” value [3] was 1 small per large subunit (1:1) and 1 small per large subunit (2:2).
